Laboratory results published in patent US20240124575A1 (SIMCERE ZAIMING PHARMACEUTICAL, published 2024).

B1: C33B904 hIgG1 (antibody, V domains shown)
VH: EVQLVESGGGLVQPGRSLRLSCAASGFTFDDYAMHWVRQAPGKGLEWVSGIGWSGGSIVYADSVKGRFTISRDNAKNSLYLQMNSLRAEDTALYYCAKDSPYGDFFDYWGQGTLVTVSS
VL: DIVMTQSPDSLAVSLGERATINCKSSQTVFYSSNNKNYLAWYQQKPGQPPKLLISWASTRKSGVPDRFSGSGSGTDFTLTVSSLQAEDVAVYYCQHYYSTPYTFGQGTKLEIKR
notes: intact human IgG1; variable regions from US20190382481A1; also called C33B3904; C331B904
B2: C33B904 (antibody, human IgG1, kappa, V domains shown)
VH: B1 VH
VL: B1 VL
notes: control antibody, intact human IgG1 form; variable regions from US20190382481A1; also called C33B904 hIgG1; C331B904

How the values were obtained:
[1] = target: T1, human CD33-His (extracellular domain Asp 18-His 259) (human, UniProt P20138 18-259); experiment: competitive ELISA vs coated S006-NB146-132 2ug/mL; soluble 25ug/ml
T1 construct: range 18-259; bought protein; also called hCD33-his; human CD33 protein; not shown: His tag
Experimental: (§1) VHH antibodies and control antibodies with known epitopes were subjected to epitope classification with competitive ELISA. ELISA plates were coated with 2 μg/mL antibodies according to the method in Example 5.1; the human CD33-his protein was subjected to a gradient dilution from 30 μg/mL, and EC80 values (Tables 26-27) were calculated. ELISA plates were coated with 2 μg/mL antibodies; after 25 µg/mL of antibodies to be tested were added, a human CD33-his protein having an EC80 concentration corresponding to each of the antibodies to be tested was then added for incubation for 2 h. The plates were washed 5 times with PBS, then HRP-labeled anti-His antibodies (purchased from GenScript, Cat. No. A00612) were added for incubation for 1 h, and the plates were washed 5 times. A TMB substrate was added at 50 μL/well and incubated at room temperature for 10 min, then a stop solution (1.0 M HCl) was added at 50 μL/well. OD_{450 nm} values were read using an ELISA plate reader (Insight, purchased from PerkinElmer), and the competition rate between the antibodies was calculated according to the OD_{450 nm} values using a formula. The results are shown in FIGS. 12A-12B, the higher the value of the competition rate, the closer the epitopes to which two antibodies bind.

[2] = target: T1, human CD33-His (extracellular domain …); experiment: ELISA, antigen coated
Experimental: (§2) In order to assay the binding activity of VHH-Fc to human CD33 protein, a human CD33-his protein (purchased from ACROBiosystems, Cat. No. CD3-H5226) was diluted with PBS to make a final concentration of 2 μg/mL, and then added into a 96-well ELISA plate at 100 μL/well. The plate was sealed with a plastic film and incubated at 4° C. overnight, washed twice with PBS the next day, and a blocking solution [PBS+2% (w/w) BSA] was added for blocking at room temperature for 2 h. The blocking solution was discarded, and VHH-Fc antibody or negative control antibody serially diluted from 100 nM was added at 50 μL/well. After incubation at 37° C. for 2 h, the plate was washed 3 times with PBS. A secondary antibody labeled with HRP (horseradish peroxidase) (purchased from Sigma, Cat. No. A0170) was added. After incubation for 1 h at 37° C., the plate was washed 5 times with PBS. A TMB substrate was added at 50 μL/well. After incubation at room temperature for 10 min, a stop solution (1.0 N HCl) was added at 50 μL/well. The OD450 nm values were read on an ELISA plate reader (Multimode Plate Reader, EnSight, purchased from Perkin Elmer). The assay results for the binding of the VHH-Fc to hCD33-his by ELISA are shown in FIGS. 7A and 7B and Tables 11 and 12. […] The IgG control was hIgG1, and the data in the table are OD450 nm values.

[3] = target: T1, human CD33-His (extracellular domain …); experiment: competitive ELISA vs coated S006-NB146-69 3ug/mL; soluble 25ug/ml
[4] = target: T1, human CD33-His (extracellular domain …); experiment: competitive ELISA vs coated S006-NB146-3 2ug/mL; soluble 25ug/ml
Experimental: as §1

human CD33-his protein [5] = target: T2, human CD33-his protein (human, UniProt P20138 18-259); experiment: competition ELISA, coated human CD33-his, vs Biotin-C33B904 at EC80; antibody 62.50 nM
T2 construct: range 18-259; bought protein; also called hCD33-his; recombinant human CD33-his; not shown: His tag
Experimental: as §2, with “The” for “In order to assay the binding activity of VHH-Fc to human CD33 protein, a human CD33-his protein (purchased from ACROBiosystems, Cat. No. CD3-H5226) was diluted with PBS to make a final concentration of 2 μg/mL, and then added into a 96-well ELISA plate at 100 μL/well. The”
(§3) ELISA plates were coated with 2 μg/mL human CD33-his protein according to the method in Example 5.1; the Biotin-C331B904 antibody was subjected to a gradient dilution from 15 μg/mL, and EC80 values (0.18 μg/mL) were calculated. […] OD_{450 nm} values were read using an ELISA plate reader (Insight, purchased from PerkinElmer). […]

human CD33-his protein [6] = target: T2, human CD33-his protein; experiment: competition ELISA, coated human CD33-his, vs Biotin-C33B904 at EC80; antibody 15.63 nM
Experimental: as §2, with “The” for “In order to assay the binding activity of VHH-Fc to human CD33 protein, a human CD33-his protein (purchased from ACROBiosystems, Cat. No. CD3-H5226) was diluted with PBS to make a final concentration of 2 μg/mL, and then added into a 96-well ELISA plate at 100 μL/well. The”
as §3

T1 sequence (P20138 18-259 limits assumed): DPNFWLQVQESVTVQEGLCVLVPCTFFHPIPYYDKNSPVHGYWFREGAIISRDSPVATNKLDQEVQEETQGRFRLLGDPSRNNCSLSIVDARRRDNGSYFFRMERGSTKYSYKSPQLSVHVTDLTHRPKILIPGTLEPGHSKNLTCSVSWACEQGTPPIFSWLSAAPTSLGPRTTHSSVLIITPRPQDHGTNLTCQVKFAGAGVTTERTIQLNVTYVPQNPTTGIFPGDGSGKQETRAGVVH
T2 sequence (P20138 18-259 limits assumed): as above

Binder	inhibition rate [1]	OD450 at 0.0001 nM [2]	OD450 at 0.001 nM [2]	OD450 at 0.01 nM [2]	OD450 at 0.1 nM [2]	OD450 at 1 nM [2]	OD450 at 10 nM [2]	OD450 at 100 nM [2]	inhibition rate [3]	inhibition rate [4]	OD450 (Biotin-C33B904 signal) (human CD33-his protein [5])	OD450 (Biotin-C33B904 signal) (human CD33-his protein [6])
B1	98%	0.04 OD450	0.06 OD450	0.08 OD450	0.28 OD450	1.39 OD450	2.6 OD450	2.96 OD450	99%	-9%		
B2											0.24	1.03
